Reference: the supplement of paper PMC9112550, “Optimization of the antimicrobial peptide Bac7 by deep mutational scanning” (BMC Biology, 2022)

System: Escherichia coli TOP10
Assay: shrunken log2 fold change of peptide-encoding DNA abundance (4.5 h post-induction vs induction); higher = less antimicrobial activity (less host growth inhibition)
Settings: time post-induction: 4.5 h; library: site-saturation at positions 5, 18, 19, 20
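Also: peptides expressed intracellularly from a pBAD plasmid library in pooled LB shake-flask culture, induced with 0.3% L-arabinose, DNA abundance read by NGS, three biological replicates, DESeq2 with apeglm shrinkage.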

Row | Sequence | shrunken log2 fold change
1 | RRIRGRPPRLPRPRPRPWSTPRP | 0.243
2 | RRIRHRPPRLPRPRPRPPAAPRP | 0.0555
3 | RRIRMRPPRLPRPRPRPWTGPRP | -0.217
4 | RRIRQRPPRLPRPRPRPRWCPRP | -0.0737
5 | RRIRRRPPRLPRPRPRPQYEPRP | -0.00402
6 | RRIRNRPPRLPRPRPRPWIGPRP | -0.128
7 | RRIRGRPPRLPRPRPRPQIMPRP | 0.173
8 | RRIRVRPPRLPRPRPRPYPGPRP | -0.183
9 | RRIRERPPRLPRPRPRPFVNPRP | -0.561
10 | RRIRHRPPRLPRPRPRPYWWPRP | -0.196
11 | RRIRYRPPRLPRPRPRPLHIPRP | -0.271
12 | RRIRGRPPRLPRPRPRPYGKPRP | -0.124
13 | RRIRLRPPRLPRPRPRPNENPRP | -0.189
14 | RRIRMRPPRLPRPRPRPAPCPRP | 0.835
15 | RRIRKRPPRLPRPRPRPFKRPRP | -0.00663
16 | RRIRVRPPRLPRPRPRPSGRPRP | 0.0291
17 | RRIRDRPPRLPRPRPRPTRNPRP | 0.174
18 | RRIRNRPPRLPRPRPRPEGEPRP | 0.481
19 | RRIRHRPPRLPRPRPRPPKMPRP | -0.0472
20 | RRIRMRPPRLPRPRPRPLSQPRP | 0.0295
21 | RRIRVRPPRLPRPRPRPYIHPRP | -0.757
22 | RRIRPRPPRLPRPRPRPYVYPRP | -0.636
23 | RRIRWRPPRLPRPRPRPCFPPRP | -0.164

Row | Sequence | shrunken log2 fold change
24 | RRIRSRPPRLPRPRPRPNTQPRP | -0.274
25 | RRIRHRPPRLPRPRPRPKIQPRP | -0.484
26 | RRIRERPPRLPRPRPRPGKKPRP | -0.0022
27 | RRIRYRPPRLPRPRPRPAHLPRP | -0.0584
28 | RRIRWRPPRLPRPRPRPCDNPRP | 0.0838
29 | RRIRARPPRLPRPRPRPWTIPRP | -0.0653
30 | RRIRFRPPRLPRPRPRPDIAPRP | 0.101
31 | RRIRVRPPRLPRPRPRPDPYPRP | -0.1
32 | RRIRVRPPRLPRPRPRPQANPRP | 0.0748
33 | RRIRRRPPRLPRPRPRPKLCPRP | 0.333
34 | RRIRPRPPRLPRPRPRPCPEPRP | -0.123
35 | RRIRKRPPRLPRPRPRPPKAPRP | 0.609
36 | RRIRHRPPRLPRPRPRPAGKPRP | 0.0288
37 | RRIRLRPPRLPRPRPRPVNTPRP | -0.186
38 | RRIRTRPPRLPRPRPRPYQEPRP | -0.182
39 | RRIRRRPPRLPRPRPRPHMCPRP | -0.0222
40 | RRIRCRPPRLPRPRPRPYTTPRP | -0.97
41 | RRIRIRPPRLPRPRPRPNRMPRP | -0.0394
42 | RRIRHRPPRLPRPRPRPSGVPRP | -0.115
43 | RRIRTRPPRLPRPRPRPNWPPRP | -0.0423
44 | RRIRMRPPRLPRPRPRPPGKPRP | 0.978
45 | RRIRCRPPRLPRPRPRPREQPRP | 0.312
46 | RRIRLRPPRLPRPRPRPYNLPRP | -0.417

Row | Sequence | shrunken log2 fold change
47 | RRIRMRPPRLPRPRPRPFYIPRP | -0.31
48 | RRIRNRPPRLPRPRPRPLLQPRP | -0.137
49 | RRIRHRPPRLPRPRPRPGWIPRP | -0.051
50 | RRIRHRPPRLPRPRPRPINEPRP | -0.99
51 | RRIRYRPPRLPRPRPRPSYLPRP | -1.08
52 | RRIRQRPPRLPRPRPRPDFWPRP | 0.0103
53 | RRIRLRPPRLPRPRPRPCNVPRP | -0.3
54 | RRIRLRPPRLPRPRPRPKYMPRP | -0.544
55 | RRIRVRPPRLPRPRPRPTMLPRP | -0.205
56 | RRIRGRPPRLPRPRPRPLHDPRP | 0.748
57 | RRIRSRPPRLPRPRPRPLLNPRP | -0.117
58 | RRIRTRPPRLPRPRPRPKTNPRP | -0.157
59 | RRIRVRPPRLPRPRPRPEMWPRP | 0.0217
60 | RRIRQRPPRLPRPRPRPVHGPRP | -0.0392
61 | RRIRLRPPRLPRPRPRPPMFPRP | -0.242
62 | RRIRDRPPRLPRPRPRPCTDPRP | -0.00136
63 | RRIRTRPPRLPRPRPRPECMPRP | 0.378
64 | RRIRNRPPRLPRPRPRPTVIPRP | 0.0591
65 | RRIRTRPPRLPRPRPRPIGSPRP | 0.0344
66 | RRIRLRPPRLPRPRPRPNGGPRP | -0.01
67 | RRIRWRPPRLPRPRPRPFIKPRP | -0.686
68 | RRIRLRPPRLPRPRPRPGSTPRP | -0.381
69 | RRIRWRPPRLPRPRPRPGKPPRP | 0.066

Row | Sequence | shrunken log2 fold change
70 | RRIRHRPPRLPRPRPRPRSSPRP | -0.00605
71 | RRIRKRPPRLPRPRPRPMCFPRP | 0.265
72 | RRIRERPPRLPRPRPRPEMHPRP | 0.0332
73 | RRIRKRPPRLPRPRPRPAITPRP | 0.613
74 | RRIRWRPPRLPRPRPRPIQTPRP | -0.0178
75 | RRIRWRPPRLPRPRPRPDTDPRP | 0.225
76 | RRIRVRPPRLPRPRPRPYWIPRP | -0.163
77 | RRIRTRPPRLPRPRPRPLASPRP | 0.125
78 | RRIRWRPPRLPRPRPRPGDEPRP | 0.0372
79 | RRIRVRPPRLPRPRPRPGTTPRP | -0.108
80 | RRIRERPPRLPRPRPRPPAIPRP | -0.0287
81 | RRIRFRPPRLPRPRPRPVRNPRP | 0.077
82 | RRIRHRPPRLPRPRPRPHQKPRP | -0.0284
83 | RRIRSRPPRLPRPRPRPLAMPRP | 0.087
84 | RRIRERPPRLPRPRPRPFTKPRP | -0.0421
85 | RRIRKRPPRLPRPRPRPGMYPRP | 0.102
86 | RRIRTRPPRLPRPRPRPRVGPRP | 0.364
87 | RRIRNRPPRLPRPRPRPQNLPRP | -0.266
88 | RRIRMRPPRLPRPRPRPPSAPRP | 1.2
89 | RRIRCRPPRLPRPRPRPQHQPRP | -0.145
90 | RRIRCRPPRLPRPRPRPQADPRP | 0.0688
91 | RRIRTRPPRLPRPRPRPPPEPRP | 0.643
